Measured values reported in PMC5992170, “Modular ssDNA binding and inhibition of telomerase activity by designer PPR proteins”.

Columns and labels:
[1] = system: cPPR-NRE (synthetic construct); experiment: EMSA; details: dU as printed (AUUGUAUAUA); EMSA: 10 mM HEPES pH 8.0, 1 mM EDTA, 50 mM KCl, 2 mM DTT, 0.1 mg/ml BSA, 0.02% Tween-20, room temperature 30 min, 0.83 uM probe, 0-10 uM protein (Kd values …)
[2] = molecular target: T1, cPPR-Telo1 (synthetic construct, UniProt PDB:5ORQ_1 1-364); experiment: EMSA; EMSA: 10 mM HEPES pH 8.0, 1 mM EDTA, 50 mM KCl, 2 mM DTT, 0.1 mg/ml BSA, 0.02% Tween-20, room temperature 30 min, 0.83 uM probe, 0-10 uM protein (Kd values only in Supplementary Fig. 2 graphic); details: protein: recombinant, tags: GST-His (pETM30), label: 5'-fluorescein via hexaethyleneglycol spacer
T1 chain: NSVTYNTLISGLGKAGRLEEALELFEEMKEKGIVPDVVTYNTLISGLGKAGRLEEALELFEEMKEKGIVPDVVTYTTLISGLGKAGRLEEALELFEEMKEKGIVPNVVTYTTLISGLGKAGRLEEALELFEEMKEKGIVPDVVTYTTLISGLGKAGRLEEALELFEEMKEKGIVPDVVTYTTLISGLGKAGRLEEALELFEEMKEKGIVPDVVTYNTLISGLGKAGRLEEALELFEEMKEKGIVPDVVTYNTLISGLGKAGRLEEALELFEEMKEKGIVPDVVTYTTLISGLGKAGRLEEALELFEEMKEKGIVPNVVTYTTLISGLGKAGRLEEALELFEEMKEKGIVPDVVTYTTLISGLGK

[3] = molecular target: T2, cPPR-Telo1 (tag removed) (synthetic construct, UniProt PDB:5ORQ_1 1-364); experiment: X-ray crystallography (1.95 A); pH 4.6, 20 mM CaCl2; EMSA: 10 mM HEPES pH 8.0, 1 mM EDTA, 50 mM KCl, 2 mM DTT, 0.1 mg/ml BSA, 0.02% Tween-20, room temperature 30 min, 0.83 uM probe, 0-10 uM protein (Kd values only in Supplementary Fig. 2 graphic); details: protein: recombinant; tags: none (GST-His removed by TEV); single strand
T2 chain: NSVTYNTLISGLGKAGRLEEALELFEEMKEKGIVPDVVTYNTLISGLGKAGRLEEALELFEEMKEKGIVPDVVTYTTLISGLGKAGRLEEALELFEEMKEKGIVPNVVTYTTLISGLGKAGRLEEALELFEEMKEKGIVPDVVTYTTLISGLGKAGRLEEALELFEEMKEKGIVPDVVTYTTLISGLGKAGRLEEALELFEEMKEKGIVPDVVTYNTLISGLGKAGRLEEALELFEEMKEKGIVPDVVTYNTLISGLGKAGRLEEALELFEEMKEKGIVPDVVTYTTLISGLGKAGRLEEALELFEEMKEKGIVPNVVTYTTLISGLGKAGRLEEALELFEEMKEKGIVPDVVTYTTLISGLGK

## AUUGUAUAUA [NRE ssDNA]
[1]
  binding signal (fold lower affinity than NRE RNA): 3

## GGTTAGGGTTAG (ssDNA) [Telo-ssDNA]
[2]; single strand
  binding result: binds

## TTAGGGTTAG (ssDNA) [cPPR-Telo1 target ssDNA]
[3]
  binding result: binds

## TTAGGGTTAGGGTTAGGG (ssDNA) [Primer a]
[2]; single strand, cannot form G4
  binding result: binds

## GGTTAGGGTTAGGGTTAGGG (structured_DNA) [Primer GG-a (Telo-ssDNA-GG)]
[2]; potential intramolecular G4
  binding result: binds
